In paper PMC10171807 (Science Advances, 2023):
Numbering of substitutions follows the chain as printed. Numbers in names are those of the source. Where “and” joins values, the source holds several entries; their conditions need not be identical. Equal values may be shown once. Read-outs that look alike come from different tables or passages of the source.

B1: _(PARL)Skd3 (PARL-cleaved Skd3, human ClpB), wild type (enzyme, UniProt Q9H078 127-707, looked up)
chain: YSKSPSNKDAALLEAARANNMQEVSRLLSEGADVNAKHRLGWTALMVAAINRNNSVVQVLLAAGADPNLGDDFSSVYKTAKEQGIHSLEDGGQDGASRHITNQWTSALEFRRWLGLPAGVLITREDDFNNRLNNRASFKGCTALHYAVLADDYRTVKELLDGGANPLQRNEMGHTPLDYAREGEVMKLLRTSEAKYQEKQRKREAEERRRFPLEQRLKEHIIGQESAIATVGAAIRRKENGWYDEEHPLVFLFLGSSGIGKTELAKQTAKYMHKDAKKGFIRLDMSEFQERHEVAKFIGSPPGYVGHEEGGQLTKKLKQCPNAVVLFDEVDKAHPDVLTIMLQLFDEGRLTDGKGKTIDCKDAIFIMTSNVASDEIAQHALQLRQEALEMSRNRIAENLGDVQISDKITISKNFKENVIRPILKAHFRRDEFLGRINEIVYFLPFCHSELIQLVNKELNFWAKRAKQRHNITLLWDREVADVLVDGYNVHYGARSIKHEVERRVVNQLAAAYEQDLLPGGCTLRITVEDSDKQLLKSPELPSPQAEKRLPKLRLEIIDKDSKTRRLDIRAPLHPEKVCNTI
B2: _(PARL)Skd3_WB (PARL-cleaved Skd3 with the Walker B mutation E455Q) (enzyme, human, UniProt Q9H078 127-707, looked up)
chain: B1 chain with E329Q
B3: _(PARL)Skd3_ARD (isolated ankyrin repeat domain of Skd3) (domain or fragment)
chain: VTTGSLGEPQWLRVATGGRPGTSPALFSGRGAATGGRQGGRFDTKCLAAATWGRLPGPEETLPGQDSWNGVPSRAGLGMCALAAALVVHCYSKSPSNKDAALLEAARANNMQEVSRLLSEGADVNAKHRLGWTALMVAAINRNNSVVQVLLAAGADPNLGDDFSSVYKTAKEQGIHSLEDGGQDGASRHITNQWTSALEFRRWLGLPAGVLITREDDFNNRLNNRASFKGCTALHYAVLADDYRTVKELLDGGANPLQRNEMGHTPLDYAREGEVMKLLRTSEAKYQEKQR
B4: Skd3_L1,L2GH_WB (_(PARL)Skd3 with the L1GH and L2GH turn loop mutations and E455Q) (enzyme)
chain: B1 chain with N19G, N20H, R52G, N53H, E329Q

Assays:
[1] = target: _(MPPΔ3)Skd3_WB (MPP-cleaved Skd3 without the C-terminal hydrophobic residues of the inhibitory sequence, with E455Q) (human); test: mass photometry
[2] = target: _(MPPΔ3)Skd3_WB (MPP-cleaved Skd3 without the C-terminal hydrophobic residues of the inhibitory sequence, with E455Q) (human); test: mass photometry; remark: listed apart in the source
FITC-casein [3] = target: FITC-casein (UniProt P02662); test: fluorescence polarisation
[4] = target: the molecule itself; test: electron microscopy, 2D class averages
FITC-casein [5] = target: FITC-casein (UniProt P02662); test: fluorescence polarisation; remark: listed apart in the source
mass photometry = target: the molecule itself; test: mass photometry

Sequence of FITC-casein (P02662 16-214): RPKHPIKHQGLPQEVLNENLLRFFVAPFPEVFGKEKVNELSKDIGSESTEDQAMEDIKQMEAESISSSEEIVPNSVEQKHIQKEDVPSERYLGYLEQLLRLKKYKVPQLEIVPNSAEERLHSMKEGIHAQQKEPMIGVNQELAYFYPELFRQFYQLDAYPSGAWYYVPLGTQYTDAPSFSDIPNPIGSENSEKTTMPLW

| Molecule | Kd (FITC-casein [3]) [µM] | stoichiometry N (mass photometry) | further results |
| --- | --- | --- | --- |
| _(MPPΔ3)Skd3_WB (MPP-cleaved Skd3 without the C-terminal hydrophobic residues of the inhibitory sequence, with E455Q) (enzyme) | – | – | stoichiometry N [1]: 12; stoichiometry N [2]: 6 |
| B1 | 3.4 | – | stoichiometry N [4]: 6 and 7; Kd (FITC-casein [5]): 0.86 µM |
| B2 | 3.6 | 6 | – |
| B3 | 3.7 | – | – |
| B4 | – | 6 and 12 | ratio of dodecamer relative to hexamer (mass photometry): 0.41 ± 0.12 |
